{"source": "paper doi:10.1101/2021.12.04.471219", "about": "(bioRxiv, 2021)", "test_in_all_cases": "MST", "key": {"[1]": {"target": "MLLT4 PDZ domain (residues 961-1056) (human) (UniProt P55196)"}, "[2]": {"target": "T1, LNX2 PDZ2 domain (residues 334-426) (human, UniProt Q8N448 334-426)", "T1 sequence": "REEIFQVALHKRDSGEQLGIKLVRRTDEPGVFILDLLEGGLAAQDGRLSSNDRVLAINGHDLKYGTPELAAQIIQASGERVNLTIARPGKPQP"}, "[3]": {"target": "PARD3 PDZ3 domain (residues 582-685) (human, UniProt Q8TEW0 582-685)", "sequence (Q8TEW0 582-685)": "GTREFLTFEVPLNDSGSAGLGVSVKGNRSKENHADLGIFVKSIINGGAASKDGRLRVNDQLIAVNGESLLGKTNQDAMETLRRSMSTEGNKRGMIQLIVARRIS"}, "[4]": {"target": "T2, ZO-1 PDZ2 domain (residues 184-264) (human, UniProt Q07157 184-264)", "T2 sequence": "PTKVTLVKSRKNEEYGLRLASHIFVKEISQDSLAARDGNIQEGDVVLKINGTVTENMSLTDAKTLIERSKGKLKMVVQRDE"}, "[5]": {"target": "T3, MPP5 PDZ domain (residues 238-336) (human, UniProt Q8N3R9 238-336)", "T3 sequence": "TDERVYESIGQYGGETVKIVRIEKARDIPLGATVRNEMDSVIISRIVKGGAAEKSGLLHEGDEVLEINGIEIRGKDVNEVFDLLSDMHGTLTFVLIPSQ"}}, "note": "Where no end group is shown, it is not given here.", "data": [{"binder": "NLNSSRVLDLLV (not fully specified)", "note": "[C-terminal SARS-CoV-2-E PBM P71L mutant peptide (12-mer, beta variant B.1.351)]", "values": [{"measurement": "Kd", "setting": "[1]", "value": "> 1000", "unit": "µM"}, {"measurement": "Kd", "setting": "[2]", "value": 47, "unit": "µM"}, {"measurement": "Kd", "setting": "[3]", "value": "> 1000", "unit": "µM"}, {"measurement": "Kd", "setting": "[4]", "value": 133, "unit": "µM"}, {"measurement": "binding result", "setting": "[5]", "value": "binds"}]}]}
